Measurements as given in patent publication US20260098102A1 (NATIONAL UNIVERSITY CORPORATION KOBE UNIVERSITY, published 2026).

T1: monkey SIRPA protein (cynomolgus monkey, UniProt P78324 31-504 (human entry))
T1 construct: Expressed on 293α cells from pcDNA3.2 V5-DEST or pFLAG V5-DEST vectors; also called cynomolgus monkey SIRPA; cSIRPA
T1 chain: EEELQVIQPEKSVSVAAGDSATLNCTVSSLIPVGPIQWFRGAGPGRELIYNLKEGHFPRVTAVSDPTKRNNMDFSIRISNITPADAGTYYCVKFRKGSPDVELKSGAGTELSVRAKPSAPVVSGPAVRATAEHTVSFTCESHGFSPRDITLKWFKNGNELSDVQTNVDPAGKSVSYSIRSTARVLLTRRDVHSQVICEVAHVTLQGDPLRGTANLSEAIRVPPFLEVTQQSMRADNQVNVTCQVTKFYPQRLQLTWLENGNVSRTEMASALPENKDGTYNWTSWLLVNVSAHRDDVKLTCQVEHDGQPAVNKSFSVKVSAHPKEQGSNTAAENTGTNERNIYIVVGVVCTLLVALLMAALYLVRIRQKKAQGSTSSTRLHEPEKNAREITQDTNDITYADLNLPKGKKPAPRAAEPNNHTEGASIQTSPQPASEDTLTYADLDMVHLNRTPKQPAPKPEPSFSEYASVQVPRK

B1: humanized anti-SIRPA antibody hD13_H1L3 (antibody, human IgG4 S228P, kappa, F234A L235A, V domains shown)
VH: QVQLVESGGGVVQPGRSLRLSCAASGFTFSDYGMIWVRQAPGKGLEWVASISSSSSYIYYADSVKGRFTISRDNSKNRLYLQMNSLRAEDTAVYYCARRYYGFNYPFDYWGQGTMVTVSS
VL: DTQLTQSPSSLSASVGQRVTITCGASKSVRTYMHWYQQKPGKQPKLLIYSASNLEAGVPSRFSGSGSGTDFTLTISSLQPEDFATYYCQQSNEPPYTFGQGTKLEIKR
notes: hH1 heavy chain (IgG4proFALA) and hL3 kappa light chain; also called hD13_HIL3; HIL3 antibody
B2: human chimeric anti-SIRPA antibody cD13 (antibody, human IgG4 S228P, kappa, F234A L235A, V domains shown)
VH: EVQLVESGGGLVQPGRSLKLSCLASGFTFSDYGMIWVRQAPGKGLEWVASISSSSSYIYYADTVKGRFTISRENAKNTLFLHMTSLRSEDTALYYCARRYYGFNYPFDYWGQGVMVTVSS
VL: DTVLTQSPALAVSLGQRVTISCGASKSVRTYMHWYQQKSGQQPKLLIYSASNLEAGVPSRFSGSGSGTDFTLTIDPVEADDIANYYCQQSNEPPYTFGAGTKLELKR
notes: Human IgG4proFALA heavy chain, human kappa light chain; also called cD13 (IgG4pf); human chimeric antibody D13

Columns and labels:
SIRPA_V1_IgV = biological target: T2, SIRPA_V1_IgV (human, UniProt P78324 31-149); test: SPR Biacore T200, antibody captured on anti-human IgG (Fc), SIRPA_V1_IgV as analyte (0.25 to 16 nM), 1:1 model
T2 construct: Secreted recombinant protein from FreeStyle 293F cells
Protocol: The dissociation constants were measured by a capture method comprising capturing each antibody as a ligand to an Anti-Human IgG (Fc) antibody immobilized using Human Antibody Capture Kit (GE Healthcare Bioscience Corp.) and measuring an antigen as an analyte, using Biacore T200 (GE Healthcare Bioscience Corp.). HBS-EP+ (GE Healthcare Bioscience Corp.) was used as a running buffer, and CM5 (GE Healthcare Bioscience Corp.) was used as a sensor chip. Onto the chip, 2 μg/mL of various antibodies were added at 10 μL/min for 30 seconds, then a serially diluted solution (0.25 to 16 nM) of the human SIRPA protein as an antigen was added at a flow rate of 30 μL/min for 120 seconds, and subsequently the dissociation phase for 600 seconds was monitored. As a regenerant, 3 M magnesium chloride (GE Healthcare Bioscience Corp.) was added at a flow rate of 20 μL/min for 30 seconds. For data analysis, a binding rate constant (ka), a dissociation rate constant (kd), and a dissociation constant (KD; KD=kd/ka) were calculated using a 1:1 binding model.

human SIRPA_V1 protein = biological target: T3, human SIRPA_V1 protein (human, UniProt P78324 31-504); test: cell-based ELISA on 293α cells expressing FLAG-tagged SIRPA_V1; Abs 490 normalized to FLAG tag
T3 construct: Expressed on 293α cells from pcDNA3.2 V5-DEST or pFLAG V5-DEST (FLAG-tagged) vectors; also called human SIRPA Variant 1; hSIRPA V1
Protocol: (§1) The 293α cells [described in Example 1)-6] were prepared in a 10% FBS-containing DMEM medium to 5×10⁵ cells/mL. pFLAG V5-DEST-SIRPA_V1, pFLAG V5-DEST-SIRPA_V2, or pFLAG V5-DEST was introduced into the cells using Lipofectamine LTX (Invitrogen), followed by addition of 100 μL per well to a 96-well plate (Corning Incorporated), and cells were cultured overnight in the 10% FBS-containing DMEM medium at 37° C. under a 5% CO₂ condition. The obtained introduced cells were used for cell-based ELISA in a state that they adhered to each other. After the culture supernatant was removed, 50 μL per well of the cD13 (IgG2 and IgG4pf), cF44 (IgG1, IgG2, IgG4p, and IgG4pf), and cF63 (IgG2 and IgG4pf) antibodies prepared in Examples 3 and 4 were added to each of pFLAG V5-DEST-SIRPA_V1, pFLAG V5-DEST-SIRPA_V2, or pFLAG V5-DEST-introduced cells at final concentrations of 0 to 10,000 ng/mL, and the mixture was allowed to stand at 4° C. for one hour. Further, 50 μL per well of anti-FLAG M2 antibody (SIGMA) diluted with 5% FBS-containing PBS to a final concentration of 10,000 ng/mL was added to a well for detecting expression of each SIRPA construct, and the mixture was allowed to stand at 4° C. for one hour. The cells in the well were washed once with 5% FBS-containing PBS, followed by addition of Peroxidase AffiniPure F(ab′)₂ Fragment Goat Anti-Human IgG, Fcγ Fragment Specific (Jackson ImmunoResearch) diluted 1000-fold with 5% FBS-containing PBS, and the mixture was allowed to stand at 4° C. for one hour. The cells in the well were washed five times with 5% FBS-containing PBS, followed by addition of 100 μL per well of an OPD coloration solution [o-phenylenediamine dihydrochloride (Wako Pure Chemical Industries, Ltd.) and H₂O₂ were dissolved in an OPD solution (0.05 M trisodium citrate, 0.1 M disodium hydrogen phosphate dodecahydrate, pH 4.5) at 0.4 mg/mL and 0.6% (v/v), respectively]. A coloration reaction was performed with stirring occasionally, 100 μL per well of 1 M HCl was added to terminate the coloration reaction, and then absorbance at 490 nm was measured with a plate reader ARVO (PerkinElmer Inc.). Binding of the human chimeric anti-human SIRPA antibodies to each construct was standardized by expression of the FLAG tag.

human SIRPA_V2 protein = biological target: T4, human SIRPA_V2 protein (human, UniProt P78324 31-504); test: cell-based ELISA on 293α cells expressing FLAG-tagged SIRPA_V2; Abs 490 normalized to FLAG tag
T4 construct: Expressed on 293α cells from pcDNA3.2 V5-DEST or pFLAG V5-DEST (FLAG-tagged) vectors; also called human SIRPA Variant 2; ECD variant (full-length, amino acids 1 to 504)
Protocol: as §1

monkey SIRPA protein = biological target: T1, monkey SIRPA protein; test: cell-based ELISA on 293α cells expressing FLAG-tagged monkey SIRPA; Abs 490 normalized to FLAG tag

T4 sequence (P78324 other isoform, or with tags, fused parts or gaps limits assumed): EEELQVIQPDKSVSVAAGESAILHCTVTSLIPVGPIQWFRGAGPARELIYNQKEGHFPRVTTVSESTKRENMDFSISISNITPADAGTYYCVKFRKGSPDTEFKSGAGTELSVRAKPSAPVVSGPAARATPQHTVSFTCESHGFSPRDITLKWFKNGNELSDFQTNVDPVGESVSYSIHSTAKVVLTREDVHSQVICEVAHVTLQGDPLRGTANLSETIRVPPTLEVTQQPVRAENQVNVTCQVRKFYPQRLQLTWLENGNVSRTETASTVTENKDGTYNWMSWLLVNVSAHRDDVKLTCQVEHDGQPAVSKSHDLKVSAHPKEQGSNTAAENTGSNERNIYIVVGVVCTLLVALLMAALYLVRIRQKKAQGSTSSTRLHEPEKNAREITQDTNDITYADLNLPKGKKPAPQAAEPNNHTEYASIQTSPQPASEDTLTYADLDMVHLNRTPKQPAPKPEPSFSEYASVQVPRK
T2 sequence (P78324 other isoform, or with tags, fused parts or gaps limits assumed): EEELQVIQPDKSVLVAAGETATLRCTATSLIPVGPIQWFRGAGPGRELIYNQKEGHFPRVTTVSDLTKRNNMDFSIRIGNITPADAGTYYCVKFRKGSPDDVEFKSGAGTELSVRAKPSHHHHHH
T3 sequence (P78324 31-504 limits assumed): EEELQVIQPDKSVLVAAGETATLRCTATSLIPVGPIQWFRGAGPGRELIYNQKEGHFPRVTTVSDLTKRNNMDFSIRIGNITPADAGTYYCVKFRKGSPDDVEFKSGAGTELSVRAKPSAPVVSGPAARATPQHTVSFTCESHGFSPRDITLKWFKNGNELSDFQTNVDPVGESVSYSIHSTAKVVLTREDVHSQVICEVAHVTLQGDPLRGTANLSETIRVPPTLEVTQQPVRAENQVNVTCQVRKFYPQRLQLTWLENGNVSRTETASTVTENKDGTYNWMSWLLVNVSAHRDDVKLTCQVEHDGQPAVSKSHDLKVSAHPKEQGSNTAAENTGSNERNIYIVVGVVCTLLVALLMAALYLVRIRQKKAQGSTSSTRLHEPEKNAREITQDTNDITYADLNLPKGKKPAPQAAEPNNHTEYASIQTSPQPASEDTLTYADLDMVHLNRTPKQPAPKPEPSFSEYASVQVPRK

Row | Binder | Kd (SIRPA_V1_IgV) [nM] | EC50 (read off the curve) (human SIRPA_V1 protein) [ng/mL] | EC50 (read off the curve) (human SIRPA_V2 protein) [ng/mL] | EC50 (read off the curve) (monkey SIRPA protein) [ng/mL]
1 | B1 | 0.252 | – | – | –
2 | B2 | – | ~80 | ~50 | ~100
